Data as given in the supplement of paper PMC10724198.
± gives the standard deviation of the averaged measurements.

System: Saccharomyces cerevisiae
Test: protein stability index of tFT-peptide fusion (C-terminal peptide) (PSI (0-1 scale)); higher = more stable (slower turnover)
Conditions: temperature: 30 C
Method: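 MPS profiling in S. cerevisiae of the yeast C-terminome library: the last 12 aa of each annotated ORF are fused to the C-terminus of a sfGFP-mCherry timer, after a GGGS linker. Cells are FACS-sorted into 8 mCherry/sfGFP bins and deep-sequenced. PSI runs from 0 (unstable) to 1 (stable); wild type and das1Δ backgrounds, two technical replicates each.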

[1] = genetic background: das1 deletion

Sequence | protein stability index [1] | protein stability index (genetic background: wild type)
EKRLQKEIKSIE [IDP1 C-terminal 12 aa] | 0.734 ± 0.012 | 0.673 ± 0.06
ELDEIANSLENL [TPM2 C-terminal 12 aa] | 0.694 ± 0.019 | 0.683 ± 0.01
ELKRKDALSKKI [COA2 C-terminal 12 aa] | 0.688 ± 0.048 | 0.75 ± 0.017
ELLQSFSLVLTL [YKL153W C-terminal 12 aa] | 0.64297 ± 0.00021 | 0.632 ± 0.024
ELPAQKSTVISE [GEP7 C-terminal 12 aa] | 0.733 ± 0.039 | 0.702 ± 0.039
ELQDALNTELLF [VAC17 C-terminal 12 aa] | 0.7157 ± 0.0042 | 0.699 ± 0.0099
ELTFDVKLVSMK [FPR4 C-terminal 12 aa] | 0.686 ± 0.0071 | 0.687 ± 0.034
ENLRLKLKNFLR [MSH5 C-terminal 12 aa] | 0.683 ± 0.0095 | 0.688 ± 0.022
ENRTMFLSKGKS [YPR172W C-terminal 12 aa] | 0.701 ± 0.024 | 0.667 ± 0.016
EPKYVDEDDWSD [CEG1 C-terminal 12 aa] | 0.69393 ± 0.00048 | 0.68 ± 0.02
EQFTRDFGQEGN [VPS4 C-terminal 12 aa] | 0.7187 ± 0.0015 | 0.671 ± 0.016
EQLGHASKRHKP [RPP1 C-terminal 12 aa] | 0.694 ± 0.011 | 0.689 ± 0.0075
ERGMYRYYSLKA [LUG1 C-terminal 12 aa] | 0.623 ± 0.028 | 0.621 ± 0.015
ERLRFYKDTFTL [RRI1 C-terminal 12 aa] | 0.726 ± 0.0089 | 0.653 ± 0.011
ERRLSDLQQYHI [TMA10 C-terminal 12 aa] | 0.6982 ± 0.0017 | 0.683 ± 0.02
ERVKIGVQFYEE [RTG2 C-terminal 12 aa] | 0.708 ± 0.013 | 0.736 ± 0.042
ESDDDMGFGLFD [RPP0 C-terminal 12 aa] | 0.7176 ± 0.002 | 0.717 ± 0.016
ESHQDKTEEDIH [OKP1 C-terminal 12 aa] | 0.69113 ± 0.00011 | 0.726 ± 0.035
ESISYLFKNYPL [PRS3 C-terminal 12 aa] | 0.717 ± 0.015 | 0.6937 ± 0.0036
ESTTDAESKGSK [MRPL11 C-terminal 12 aa] | 0.676 ± 0.015 | 0.706 ± 0.11
ETIWTEWHNLKK [DIG2 C-terminal 12 aa] | 0.726 ± 0.059 | 0.686 ± 0.0099

Sequence | protein stability index [1] | protein stability index (genetic background: wild type)
ETRASCLLSRAF [YJL052C-A C-terminal 12 aa] | 0.6962 ± 0.0034 | 0.698 ± 0.015
EVYLQAIDLIDC [PIR3 C-terminal 12 aa] | 0.6774 ± 0.0063 | 0.6614 ± 0.005
EWAEENADNVEW [RPS0A C-terminal 12 aa] | 0.7363 ± 0.0068 | 0.728 ± 0.028
EWFYEKFLGNIF [DIP5 C-terminal 12 aa] | 0.747 ± 0.013 | 0.702 ± 0.014
EWVVPEHMLGPK [FUM1 C-terminal 12 aa] | 0.741 ± 0.0091 | 0.739 ± 0.041
EYGGYGEYGNGS [RTG1 C-terminal 12 aa] | 0.6949 ± 0.0018 | 0.674 ± 0.0096
EYTDFMSWMQDN [YER186C C-terminal 12 aa] | 0.74 ± 0.01 | 0.646 ± 0.15
FAAPIKPSTRAG [YLR347W-A C-terminal 12 aa] | 0.6876 ± 0.0016 | 0.71 ± 0.0086
FAQNTNKDVELN [NGG1 C-terminal 12 aa] | 0.682 ± 0.028 | 0.666 ± 0.046
FASNKKVTASLR [AZR1 C-terminal 12 aa] | 0.696 ± 0.013 | 0.6868 ± 0.00086
FDELVRKYDTSN [SEC28 C-terminal 12 aa] | 0.718 ± 0.017 | 0.665 ± 0.0076
FEFEFFESCYNA [PET18 C-terminal 12 aa] | 0.744 ± 0.019 | 0.744 ± 0.038
FGIWNTDMSVWS [YBL081W C-terminal 12 aa] | 0.699 ± 0.017 | 0.7253 ± 0.0045
FGKYLPLNYPSE [ASG1 C-terminal 12 aa] | 0.7167 ± 0.0015 | 0.671 ± 0.015
FGNDMVINFETD [UTP22 C-terminal 12 aa] | 0.7438 ± 0.0026 | 0.731 ± 0.12
FHLNAKTRESEI [YDL162C C-terminal 12 aa] | 0.702 ± 0.012 | 0.67952 ± 0.00014
FIHDVFFVYFRF [YDL094C C-terminal 12 aa] | 0.176 ± 0.0076 | 0.17 ± 0.006
FIKLSLASSFSN [ISF1 C-terminal 12 aa] | 0.7094 ± 0.0028 | 0.661 ± 0.022
FINKIYHQKVNL [TMN3 C-terminal 12 aa] | 0.707 ± 0.0078 | 0.781 ± 0.004
FKAKFRKVKINA [YKR015C C-terminal 12 aa] | 0.6339 ± 0.0053 | 0.134 ± 0.0025
FKIFCNCIQSLA [YPL199C C-terminal 12 aa] | 0.341 ± 0.0075 | 0.323 ± 0.009

Sequence | protein stability index [1] | protein stability index (genetic background: wild type)
FKSTPIIYSNVI [YER006C-A C-terminal 12 aa] | 0.724 ± 0.027 | 0.642 ± 0.0074
FLEIVVPCHCTT [YJL077W-A C-terminal 12 aa] | 0.539 ± 0.0037 | 0.56 ± 0.021
FLIWRKKVSRNK [YOR329W-A C-terminal 12 aa] | 0.73 ± 0.054 | 0.727 ± 0.11
FLNIENPENQSE [RCO1 C-terminal 12 aa] | 0.687 ± 0.01 | 0.674 ± 0.018
FLSMTYASLVNK [YLR294C C-terminal 12 aa] | 0.713 ± 0.022 | 0.706 ± 0.062
FLVLKIIKALLW [MTC4 C-terminal 12 aa] | 0.526 ± 0.013 | 0.523 ± 0.026
FRGKLFLDSITD [MLC2 C-terminal 12 aa] | 0.724 ± 0.0085 | 0.73 ± 0.034
FRNYRGHYRGRK [SGS1 C-terminal 12 aa] | 0.705 ± 0.03 | 0.685 ± 0.039
FSALVLRGVRGE [YBR196C-B C-terminal 12 aa] | 0.698 ± 0.014 | 0.6769 ± 0.0067
FSDFLDSNRITQ [LDB19 C-terminal 12 aa] | 0.72756 ± 0.00057 | 0.723 ± 0.017
FSDWKNNNGPHK [IBA57 C-terminal 12 aa] | 0.701 ± 0.02 | 0.71 ± 0.062
FSTIDGSIKDIK [FDO1 C-terminal 12 aa] | 0.668 ± 0.023 | 0.6865 ± 0.0054
FTGGDILPPEFN [SPS18 C-terminal 12 aa] | 0.7639 ± 0.0048 | 0.739 ± 0.015
FTHFTSSKDRKD [SIT1 C-terminal 12 aa] | 0.711 ± 0.026 | 0.699 ± 0.021
FVAKEIADDSKK [TIM12 C-terminal 12 aa] | 0.684 ± 0.016 | 0.709 ± 0.03
GAAVAAGVAFLF [YDR524C-B C-terminal 12 aa] | 0.717 ± 0.018 | 0.717 ± 0.044
GAAVRLTGSDRV [RPN7 C-terminal 12 aa] | 0.685 ± 0.007 | 0.679 ± 0.035
GAMSEGKTGQLN [YLR036C C-terminal 12 aa] | 0.699 ± 0.02 | 0.6988 ± 0.0014
GARPPKNEARII [YBL036C C-terminal 12 aa] | 0.694 ± 0.011 | 0.677 ± 0.038
